{"source": "patent US20260116958A1", "about": "(University of California, published 2026)", "binders": {"B1": {"name": "Hu6G7.2 IgG (antibody, V domains shown)", "VH": "QVQLVQSGAEVKKPGASVKVSCKASDYSFTDYNIYWVRQTPGQGLEWIGYIDPYNGGTSYNQKFKGRATLTVDKSISTAYMELSRLRSDDTAVYYCALYGYDPDYTEYWGQGTTLTVSS", "VL": "DIVLTQSPASMAVSPGQRVTITCSASSSVSYLHWFQQKPGQSPKLWIYSTSNLASGVPARFSGSGSGTDYTLTINPMEAEDTATYYCQQRSSYPYTFGQGTKLEIKR"}}, "key": {"active BoNT/G holotoxin [1]": {"target": "T1, active BoNT/G holotoxin (Clostridium botulinum, UniProt Q60393 2-1297)", "T1 sequence": "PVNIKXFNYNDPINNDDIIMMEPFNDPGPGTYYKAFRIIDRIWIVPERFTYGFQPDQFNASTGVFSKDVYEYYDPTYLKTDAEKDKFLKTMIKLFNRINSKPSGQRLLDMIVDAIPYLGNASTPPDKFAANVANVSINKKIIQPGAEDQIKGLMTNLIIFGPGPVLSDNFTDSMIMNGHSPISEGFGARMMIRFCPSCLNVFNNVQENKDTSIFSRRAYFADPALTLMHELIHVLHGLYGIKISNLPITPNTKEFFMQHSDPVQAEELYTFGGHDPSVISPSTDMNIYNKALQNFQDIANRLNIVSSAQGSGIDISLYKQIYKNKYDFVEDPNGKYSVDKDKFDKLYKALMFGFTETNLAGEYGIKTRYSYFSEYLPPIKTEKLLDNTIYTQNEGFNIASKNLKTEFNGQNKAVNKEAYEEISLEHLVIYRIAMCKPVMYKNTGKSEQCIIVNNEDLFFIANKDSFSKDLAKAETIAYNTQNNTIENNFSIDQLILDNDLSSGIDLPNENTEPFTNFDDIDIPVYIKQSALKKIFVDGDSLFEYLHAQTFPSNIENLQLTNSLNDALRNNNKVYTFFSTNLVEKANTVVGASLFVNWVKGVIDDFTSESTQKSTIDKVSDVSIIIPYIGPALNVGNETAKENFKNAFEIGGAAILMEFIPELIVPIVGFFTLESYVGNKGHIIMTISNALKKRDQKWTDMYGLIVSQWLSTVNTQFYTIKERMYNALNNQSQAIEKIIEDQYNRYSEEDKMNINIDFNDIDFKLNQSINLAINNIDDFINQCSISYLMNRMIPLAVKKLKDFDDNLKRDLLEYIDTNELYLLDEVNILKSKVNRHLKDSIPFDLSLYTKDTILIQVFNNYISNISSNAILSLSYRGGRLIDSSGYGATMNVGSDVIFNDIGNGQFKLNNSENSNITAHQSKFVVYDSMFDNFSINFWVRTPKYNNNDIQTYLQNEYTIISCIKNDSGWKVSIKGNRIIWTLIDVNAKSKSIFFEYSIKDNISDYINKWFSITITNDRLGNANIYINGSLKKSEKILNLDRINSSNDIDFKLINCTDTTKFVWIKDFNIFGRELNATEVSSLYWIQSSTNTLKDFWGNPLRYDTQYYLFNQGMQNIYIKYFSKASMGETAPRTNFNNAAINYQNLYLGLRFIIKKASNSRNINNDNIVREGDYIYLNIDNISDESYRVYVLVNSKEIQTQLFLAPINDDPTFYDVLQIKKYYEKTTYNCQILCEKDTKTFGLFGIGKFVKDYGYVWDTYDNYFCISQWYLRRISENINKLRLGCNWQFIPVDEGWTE", "experiment": "KinExA, IgG; 'affinity to the active BoNT/G holotoxin'"}, "active BoNT/G holotoxin [2]": {"target": "T1, active BoNT/G holotoxin", "experiment": "KinExA, IgG"}}}
{"binder": "B1", "values": [{"measurement": "Kd", "setting": "active BoNT/G holotoxin [1]", "value": 51, "unit": "pM"}, {"measurement": "Kd", "setting": "active BoNT/G holotoxin [2]", "value": 51, "unit": "pM"}]}
